{"source": "paper PMC3948114", "binders": {"B1": {"name": "FLAG-tagged 3DL1*001, P43629 M165A (protein)", "chain": "HMGGQDKPFLSAWPSAVVPRGGHVTLRCHYRHRFNNFMLYKEDRIHIPIFHGRIFQESFNMSPVTTAHAGNYTCRGSHPHSPTGWSAPSNPVVIMVTGNHRKPSLLAHPGPLVKSGERVILQCWSDIMFEHFFLHKEGISKDPSRLVGQIHDGVSKANFSIGPMALALAGTYRCYGSVTHTPYQLSAPSDPLDIVVTGPYEKPSLSAQPGPKVQAGESVTLSCSSRSSYDMYHLSREGGAHERRLPAVRKVNRTFQADFPLGPATHGGTYRCFGSFRHSPYEWSDPSDPLLVSVTGNPSSSWPSPTEPSSKSGNPRHLHILIGTSVVIILFILLLFFLLHLWCSNKKNAAVMDQEPAGNRTANSEDSDEQDPEEVTYAQLDHCVFTQRKITRPSQRPKTPPTDTILYTELPNAKPRSKVVSCP"}, "B2": {"name": "FLAG-tagged 3DL1*001, P43629 E282A (protein)", "chain": "B1 chain with A165M, E282A"}, "B3": {"name": "FLAG-tagged 3DL1*001, P43629 Y200A (protein)", "chain": "B1 chain with A165M, Y200A"}, "B4": {"name": "FLAG-tagged 3DL1*001, P43629 E282Q (protein)", "chain": "B1 chain with A165M, E282Q"}, "B5": {"name": "FLAG-tagged 3DL1*001, P43629 L166A (protein)", "chain": "B1 chain with A165M, L166A"}, "B6": {"name": "FLAG-tagged 3DL1*001, P43629 P199A (protein)", "chain": "B1 chain with A165M, P199A"}, "B7": {"name": "FLAG-tagged 3DL1*001, P43629 Y200F (protein)", "chain": "B1 chain with A165M, Y200F"}, "B8": {"name": "FLAG-tagged 3DL1*001, P43629 A167G (protein)", "chain": "B1 chain with A165M, A167G"}, "B9": {"name": "FLAG-tagged 3DL1*001, P43629 L166V (protein)", "chain": "B1 chain with A165M, L166V"}, "B10": {"name": "FLAG-tagged 3DL1*001, P43629 D230A (protein)", "chain": "B1 chain with A165M, D230A"}}, "note": "Where a chain is given by its changes, count along the chain named. Names and notes keep the numbering of the source."}
{"target": "HLA-B*27:05-KF9 N8H tetramer", "test": "tetramer staining of transfected HEK293 cells", "details": "chain shown with the change; 0.2 μg tetramer; parent: est. 100; read off a plot"}
{"binder": "B1", "percent of parent": "61 % of ·001"}
{"binder": "B2", "percent of parent": "48 % of ·001"}
{"binder": "B3", "percent of parent": "15 % of ·001"}
{"binder": "B4", "percent of parent": "89 % of ·001"}
{"binder": "B5", "percent of parent": "45 % of ·001"}
{"binder": "B6", "percent of parent": "21 % of ·001"}
{"binder": "B7", "percent of parent": "81 % of ·001"}
{"binder": "B8", "percent of parent": "130 % of ·001"}
{"binder": "B9", "percent of parent": "58 % of ·001"}
{"binder": "B10", "percent of parent": "66 % of ·001"}
{"target": "HLA-B*27:05-KF9 tetramer", "test": "tetramer staining of transfected HEK293 cells", "details": "chain shown with the change; 0.2 μg tetramer; parent: est. 100; read off a plot"}
{"binder": "B1", "percent of parent": "60 % of ·001"}
{"binder": "B2", "percent of parent": "51 % of ·001"}
{"binder": "B3", "percent of parent": "16 % of ·001"}
{"binder": "B4", "percent of parent": "99 % of ·001"}
{"binder": "B5", "percent of parent": "56 % of ·001"}
{"binder": "B6", "percent of parent": "21 % of ·001"}
{"binder": "B7", "percent of parent": "87 % of ·001"}
{"binder": "B8", "percent of parent": "65 % of ·001"}
{"binder": "B9", "percent of parent": "36 % of ·001"}
{"binder": "B10", "percent of parent": "70 % of ·001"}
